Data published in patent publication US7265263B1, “Potato transcription factors, methods of use thereof, and a method for enhancing tuber development” (Iowa State University Research Foundation, Inc., priority 2002, dated 2007).
Entries after “also recorded” stand apart in the source; their conditions may differ.

B1: StBEL-11: BEL transcription factor from Solanum tuberosum, SEQ ID NO:4 (protein, listed as Solanum tuberosum)
chain: MTFRSSLPLDLREISTTNHQVGILSSSPLPSPGTNTNNINHTRGLGASSSFSISNGMILGSKYLKVAQDLLDEVVNVGKNIKLSDGLESGAKEKHKLDNELISLASDDVESSSQKNSGVELTTAQRQELQMKKAKLVSMLDEVDQRYRQYHHQMQMIATSFEQTTGIGSSKSYTQLALHTISKQFRCLKDAISGQIKDTSKTLGEEENIGGKIEGSKLKFVDHHLRQQRALQQLGMMQTNAWKPQRGLPERAVSVLRAWLFEHFLHPYPKDSDKIILAKQTGLTRSQVSNWFINARVRLWKPMVEEMYMEEVKKNNQEQNIEPNNNEIVGSKSSVPQEKLPISSNIIHNASPNDISTSTISTSPTGGGGSIPTQTVAGFSFIRSLNMENIDDQRNNKKARNEMQNCSTSTILSMEREIINKVVQDETIKSEKFNNTQTRECYSLMTPNYTMDDQFGTRFNNQNHEQLATTTTFHQGNGHVSLTLGLPPNSENQHNYIGLENHYNQPTHHPNISYENIDFQSGKRYATQLLQDFVS
B2: StBEL-14: BEL transcription factor from Solanum tuberosum, SEQ ID NO:8 (protein, listed as Solanum tuberosum)
chain: MVNHQLQNFETNPEMYNLSSTTSSMDQMIGFPPNNNNPHHVLWKGNFPNKINGVDDDDHGPSSSKNIISEQFYQHGSHENMLTTTTTHHDDHQGSWHHDNNRTLLVDDPSMRCVFPCEGNERPSHGLSLSLCSSNPSSIGLQSFELRHQDLQQGLIHDGFLGKSTNIQQGYFHHHHQVRDSKYLGPAQELLSEFCSLGIKKNNDHSSSKVLLKQHESTASTSKKQLLQSLDLLELQKRKTKLLQMLEEVDRRYKHYCDQMKAVVSSFEAVAGNGAATVYSALASRAMSRHFRCLRDGIVAQIKATKMAMGEKDSTSTLIPGSTRGETPRLRLLDQTLRQQKAFQQMNMMETHPWRPQRGLPERSVSVLRAWLFEHFLHPYPSDVDKHILARQTGLSRSQVSNWFINARVRLWKPMVEEMYLEETKEEENVGSPDGSKALIDDMTIHQSHIDHHQADQKPNLVRIDSECISSIINHQPHEKNDQNYGVIRGGDQSFGAIELDFSTNIAYGTSGGDHHHHGGGVSLTLGLQQHGGSGGSSMGLTTFSSQPSHNQSSLFYPRDDDQVQYSSLLDSENQNLPYRNLDGGTTSS
B3: pAD5-9: StBEL-05 deletion construct, aa 1 through 315 (protein)
chain: MNPNNYMQGYTTSDTQQQQQLLFLNSSPAASNALCHANIQHAPLQQQHFVGVPLPAVSLHDQINHHGLLQRMWNNQDQSQQVIVPSSTGVSATSCGGITTDLASQLAFQRPIPTPQHRQQQQQQGGLSLSLSPQLQQQISFNNNISSSSPRTNNVTIRGTLDGSSSNMVLGSKYLKAAQELLDEVVNIVGKSIKGDDQKKDNSMNKESMPLASDVNTNSSGGGESSSRQKNEVAVELTTAQRQELQMKKAKLLAMLEEVEQRYRQYHHQMQIIVLSFEQVAGIGSAKSYTQLALHAISKQFRCLKDAIAEQVKAT
modifications: left off: large carriers
B4: StBEL-29: BEL transcription factor from Solanum tuberosum, SEQ ID NO:12 (protein, listed as Solanum tuberosum)
chain: QGLSLSLSSSQQPGFGNFTAARELVSSPSGSASASGIQQQQQQQQSISSVPLSSKYMKAAQELLDEVVNVGKSMKSTNSTDVVVNNDVKKSKNMGDMDGQLDGVGADKDGAPTTELSTGERQEIQMKKAKLVNMLDEVEQRYRHYHHQMQSVIHWLEQAAGIGSAKTYTALALQTISKQFRCLKDAIIGQIRSASQTLGEEDSLGGKIEGSRLKFVDNQLRQQRALQQLGMIQHNAWRPQRGLPERAVSVLRAWLFEHFLHPYPKDSDKMMLAKQTGLTRSQVSNWFINARVRLWKPMVEEMYLEEIKEHEQNGLGQEKTSKLGEQNEDSTTSRSIATQDKSPGSDSQNKSFVSKQDNHLPQHNPASPMPDVQRHFHTPIGMTIRNQSAGFNLIGSPEIESINITQGSPKKPRNNEMLHSPNSIPSINMDVKPNEEQMSMKFGDDRQDRDGFSLMGGPMNFMGGFGAYPIGEIARFSTEQFSAPYSTSGTVSLTLGLPHNENLSMSATHHSFLPIPTQNIQIGSEPNHEFGSLNTPTSAHSTSSVYETFNIQNRKRFAAPLLPDFVA
B5: StBEL-22: BEL transcription factor from Solanum tuberosum, SEQ ID NO:10 (protein, listed as Solanum tuberosum)
chain: TSVYETAGLLSEMFNFQTTSTAATELLQNQLSNNYRHPNQQPHHQPPTREWFGNRQEIVVGGSLQVTFGDTKDDVNAKVLLSNRDSVTDYYQRQHNQVPSINTAESMQLFLMNPQPSSPSQSTPSTLHQGFSSPVGGHFSQFMCGGASTSSNPIGGVNVIDQGQGLSLSLSSTLQHLEASKVEDLRMNSGGEMLFFNQESQNHHNIGFGSSLGLVNVLRNSKYVKATQELLEEFCCVGKGQLFKKINKVSRNNNTSTSPIINPSGSNNNNSSSSKAIIPPNLSTAERLDHQRRKVKLLSMLDEVEKRYNHYCEQMQMVVNSFDLVMGFGAAVPYTALAQKAMSRHFKCLKDGVAAQLKKTCEALGEKDASSSSGLTKGETPRLKVLEQSLRQQRAFQQMGMMEQEAWRPQRGLPERSVNILRAWLFEHFLHPYPSDADKHLLARQTGLSRNQVANWFINARVRLWKPMVEEMYQREVNEDDVDDMQENQNSTNTQIPTPNIIITTNSNITETKSAATATIASDKKPQINVSEIDPSIVAMNTHYSSSMPTQLTNFPTIQDESDHILYRRSGAEYGTTNMASNSEIGSNMITFGTTTASDVSLTLGLRHAGNLPENTHFSG

Assays:
[1] = system: POTH1 overexpression lines; assay: Exogenous GA3 application to POTH1 overexpression lines; assay type: in vivo, Solanum tuberosum
Source text: Many of the traits of the phenotypes observed in POTH1 overexpression lines were similar to GA-deficient mutants. These similarities included decreased plant height, decreased internode length, and darker green coloration of the leaves (van den Berg et al., “Morphology and [^14C]Gibberellin A12 Metabolism in Wild-Type and Dwarf Solanum Tuberosum ssp. Andigena Grown Under Long and Short Photoperiods,” J. Plant Physiol. 146:467-473 (1995), which is hereby incorporated by reference in its entirety). Because of this, exogenous GA3 was applied to determine whether the overexpression lines were responsive to GA treatment. The shoot apex of overexpression lines was sprayed to runoff with 10 μM GA3 in 0.002% (v/v) ethanol or with 0.002% (v/v) ethanol alone. […] Palisade and spongy parenchyma organization is partially rescued in leaves from line 15 treated with GA3 (FIG. 5G). The GA3-treated leaf (FIG. 5J) of the severe mutant, line 15, is more similar in morphology to the wild-type leaf (FIG. 5K). Leaflets are more ovate in form rather than the typical mouse-ear shape. Wild-type leaves have a prominent mid-vein (FIG. 5L), whereas the mid-vein (FIG. 5M, arrow) is more prominent in the mutant GA3-treated leaf than in the mutant untreated leaf (FIG. 5N). […]

[2] = system: POTH1; assay: Yeast two-hybrid interaction with POTH1; assay type: binding, Solanum tuberosum; conditions: nutritional selection and lacZ activation, yeast AH109
Source text: The Matchmaker two-hybrid system (Clontech, Calif.) was used for the yeast two-hybrid screen. Yeast transformation and plasmid rescue into DH5-α E. coli cells were according to the manufacturer's instructions. Full-length POTH1 was cloned into the pBridge (Clontech, Calif.) vector and used as bait to screen the potato (S. tuberosum ‘Desireé’) stolon cDNA library in pAD-GAL4-2.1 (Stratagene, Calif.). Positive interactions were confirmed by cotransforming yeast strain AH109 with each purified pAD plasmid and pBridge: POTH1 and plating on -leucine/-tryptophan (transformation control) and -leucine/-tryptophan/-histidine/-adenine (selection) nutrient medium. Induction of the AH109 reporter gene, lacZ, was measured with a yeast β-galactosidase assay kit (Pierce Chemicals). β-galactosidase activity (FIG. 9B) was determined from a known density of yeast cells and calculated as 1000×OD420/time of color reaction (minutes)×volume of yeast culture (ml)×OD600.
The StBEL-05 deletion constructs were amplified by PCR, then cloned into the vector, pGAD, in-frame with the GAL4 activation domain. POTH1 deletion constructs were amplified by PCR, and cloned into pBridge (Clontech) in-frame with the GAL4 binding domain. Sequencing of selected cDNAs and constructs was performed at the Iowa State University DNA Facility. For deletion analysis, modified constructs of POTH1 were cloned into the pBridge vector for fusion with the DNA-binding domain of GAL4 (FIG. 10A). For StBEL-05, constructs were cloned into the pGAD vector for fusion with the activating domain of GAL4 (FIG. 10B). Deletion constructs were made from both the amino and carboxy termini. These mutants were then tested for interaction in the yeast two-hybrid system by cotransforming into yeast strain AH109 with the corresponding full-length partner (StBEL-05 in pGAL4 or POTH1 in pBridge). All constructs were sequenced to verify that they were in-frame. Positive interactions were verified for lacZ induction by using a β-galactosidase assay (Pierce Chemical Company). For POTH1, seven deletion constructs were tested (FIG. 10A). For the BEL TFs, a fusion construct of StBEL-05 (653 aa of StBEL-05 sequence) and nine deletion constructs were tested (FIG. 10B).

POTH1, sequence (as listed by the source): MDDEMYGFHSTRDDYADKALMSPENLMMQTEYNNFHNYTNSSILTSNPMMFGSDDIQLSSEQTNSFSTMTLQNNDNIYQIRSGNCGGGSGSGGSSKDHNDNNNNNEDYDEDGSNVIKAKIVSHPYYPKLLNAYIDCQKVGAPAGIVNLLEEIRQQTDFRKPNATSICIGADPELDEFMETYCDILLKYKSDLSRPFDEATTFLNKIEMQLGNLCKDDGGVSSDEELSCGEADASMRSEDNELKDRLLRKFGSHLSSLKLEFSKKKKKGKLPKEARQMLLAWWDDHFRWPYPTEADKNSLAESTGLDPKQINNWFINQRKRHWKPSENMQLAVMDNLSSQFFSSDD

Molecule | effect on leaf morphology ([1]; 10 μM GA3 sprayed on shoot apex) | effect on dwarf phenotype ([1]; GA3 application) | interaction with POTH1 [2]
C=C1C[C@]23C[C@@]1(O)CC[C@H]2[C@@]12C=C[C@H](O)[C@@](C)(C(=O)O1)[C@H]2[C@@H]3C(=O)O [GA3] | partially rescued the leaf morphology of both severe and intermediate phenotypes; also recorded: partial reversal of the leaf phenotype | completely rescued the dwarf phenotype | 
B1 |  |  | showed selective interaction
B2 |  |  | showed selective interaction
B3 |  |  | demonstrated an interaction; also recorded: interaction with POTH1
B4 |  |  | showed selective interaction
B5 |  |  | showed selective interaction
